For 2 molecules, Kd and IC50 results are on record in US20240158512A1 (TRUEBINDING, published 2024).

“And” between values parts separate entries of the source, which are not always exact repeats. Equal values may be shown once.

Usually Kd stands for a measure of binding affinity in units of concentration. A lower Kd goes with tighter binding. By IC50 is commonly meant the concentration that gives 50% inhibition. High values mean weaker potency, low ones greater potency.

Assay [1] deals with T1, Galectin-3 (UniProt P17931 1-250, limits assumed).
T1 construct: Target of the anti-Gal3 antibody TB006; also called Gal3; GAL3
T1 sequence (P17931 whole entry): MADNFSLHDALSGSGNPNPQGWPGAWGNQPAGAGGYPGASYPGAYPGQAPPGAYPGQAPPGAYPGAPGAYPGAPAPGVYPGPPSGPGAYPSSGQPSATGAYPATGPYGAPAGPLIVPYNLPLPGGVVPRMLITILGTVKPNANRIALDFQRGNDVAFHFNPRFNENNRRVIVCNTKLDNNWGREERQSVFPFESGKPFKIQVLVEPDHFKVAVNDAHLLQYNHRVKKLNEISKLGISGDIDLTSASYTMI
As to the kind of experiment: BLI; after 25 C for 1 month. (Biolayer interferometry detects binding as a change in optical thickness at a sensor tip.)

In assay [2] the target is T1, Galectin-3. As to the kind of experiment: BLI; after 4 C for 3 months.
Assay [3] concerns the target T1, Galectin-3. As to the kind of experiment: BLI; after 4 C for 6 months.
For assay [4], the target named is T1, Galectin-3. As to the kind of experiment: BLI; after 40 C for 21 days.
The target of assay [5] is T1, Galectin-3. As to the kind of experiment: BLI; after 25 C for 9 months.
The target of assay [6] is T1, Galectin-3. As to the kind of experiment: BLI; after -80 C for 6 months.
Assay [7] has as its target T1, Galectin-3. As to the kind of experiment: BLI; after -80 C for 9 months.
Assay [8] deals with T1, Galectin-3. As to the kind of experiment: BLI; after -80 C for 12 months.
The target of assay [9] is T1, Galectin-3. As to the kind of experiment: BLI; after 3 freeze/thaws, 50% vol. of container.
For assay [10], the target named is T1, Galectin-3. As to the kind of experiment: BLI; after 5 freeze/thaws, 50% vol. of container.
For assay [11], the target named is T1, Galectin-3. As to the kind of experiment: BLI; after 5 freeze/thaws, 75% vol. of container.
The target in assay [12] is T1, Galectin-3. As to the kind of experiment: ELISA (Biological Activity); long-term stability 5 C, 3 months.
Assay [13] addresses T1, Galectin-3. As to the kind of experiment: BLI (Binding Activity); accelerated stability 25 C/60% RH, 1 month.
Assay [14] addresses T1, Galectin-3. As to the kind of experiment: ELISA blocking assay; TB006 diluted to 0.31 mg/mL in 0.9% NaCl, 25 C, 0 h; blocked partner not named.
In assay [15] the target is T1, Galectin-3. As to the kind of experiment: ELISA blocking assay; TB006 diluted to 0.31 mg/mL in 0.9% NaCl, 25 C, 1 h; blocked partner not named. (In general: An ELISA detects its analyte on a solid surface through an enzyme-linked reagent.)
For assay [16], the target named is T1, Galectin-3. As to the kind of experiment: ELISA blocking assay; TB006 diluted to 0.31 mg/mL in 0.9% NaCl, 25 C, 2 h; blocked partner not named.
Assay [17] addresses T2, Galectin-3 (Gal3) (UniProt P17931 1-250, limits assumed).
T2 construct: Target of TB006
As to the kind of experiment: BLI; 20 mg/mL DS after 4 C for 1 month.

Assay [18] deals with T2, Galectin-3 (Gal3). As to the kind of experiment: BLI; 50 mg/mL DS after 4 C for 1 month.
Assay [19] deals with T2, Galectin-3 (Gal3). As to the kind of experiment: BLI; 20 mg/mL DS after 25 C for 1 month. In a few lines: (§1)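 Binding to Galectin-3 was assessed by biolayer interferometry and given as the dissociation constant (Kd). Samples were tested at time zero or after stress, namely agitation (shear), repeated freeze-thaw cycles, or storage at set temperatures. The storage conditions included a 40° C stress test and cryogenic storage.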

The target of assay [20] is T2, Galectin-3 (Gal3). As to the kind of experiment: BLI; 20 mg/mL DS after 25 C for 14 days. In a few lines:
as §1

Assay [21] deals with T2, Galectin-3 (Gal3). As to the kind of experiment: BLI; 20 mg/mL DS after 4 C for 3 months.
In assay [22] the target is T2, Galectin-3 (Gal3). As to the kind of experiment: BLI; 20 mg/mL DS after 4 C for 6 months.
For assay [23], the target named is T2, Galectin-3 (Gal3). As to the kind of experiment: BLI; 20 mg/mL DS after 40 C for 14 days.
Assay [24] concerns the target T2, Galectin-3 (Gal3). As to the kind of experiment: BLI; 20 mg/mL DS after 40 C for 21 days. In a few lines:
as §1

For assay [25], the target named is T2, Galectin-3 (Gal3). As to the kind of experiment: BLI; 50 mg/mL DS after 40 C for 14 days.
For assay [26], the target named is T2, Galectin-3 (Gal3). As to the kind of experiment: BLI; 50 mg/mL DS after 40 C for 28 days.
Assay [27] has as its target T2, Galectin-3 (Gal3). As to the kind of experiment: BLI; 20 mg/mL DS after -80 C for 1 month. In a few lines:
as §1

The target in assay [28] is T2, Galectin-3 (Gal3). As to the kind of experiment: BLI; 20 mg/mL DS after 25 C for 9 months.
Assay [29] has as its target T2, Galectin-3 (Gal3). As to the kind of experiment: BLI; 50 mg/mL DS after 25 C for 3 months.
Assay [30] concerns the target T2, Galectin-3 (Gal3). As to the kind of experiment: BLI; 50 mg/mL DS after -80 C for 3 months.
Assay [31] has as its target T2, Galectin-3 (Gal3). As to the kind of experiment: BLI; 50 mg/mL DS after -80 C for 6 months.
Assay [32] addresses T2, Galectin-3 (Gal3). As to the kind of experiment: BLI; 50 mg/mL DS after agitation for 1 day.

T2 sequence (P17931 whole entry): as above

B1: TB006 (antibody, human IgG4 S228P, kappa, V domains shown)
VH: QVQLVQSGAEVKKPGASVKVSCKASGYSFTNYYMHWVRQAPGQRLEWMGWIYPGSGNTNYNEKFQGRVTITADTSASTAYMELSSLRSEDTAVYYCSTAPGGFDVWGQGTTVTVSS
VL: DIVMTQTPLSLSVTPGQPASISCKSSKSLLHSDGITYLYWYLQKPGQSPQLLIYRMSNLASGVPDRFSGSGSGTDFTLKISRVEAEDVGVYYCAQMLEFPLTFGQGTKLEIKR
notes: Tested as formulated drug substance or drug product in 20 mM L-histidine, 5 mM methionine, 100 mM NaCl, 0.02% polysorbate 80, pH 5.8, or diluted in 0.9% saline; also called 4A11.H3L1; IMT006a
Consider B1, for which the Kd in the assay with Galectin-3 [1] came out at 3.1 nM; in the assay with Galectin-3 [2], 3.3 nM; in the assay with Galectin-3 [3], 2.3 nM; with Galectin-3 [4], 2.8 nM; with Galectin-3 [5] it was 2.8 nM; with Galectin-3 [6], 2.8 nM. For the same molecule, the Kd in the assay with Galectin-3 [7] came out at 2 nM; with Galectin-3 [8], 3 nM; in the assay with Galectin-3 [9] it was 2.3 nM; in the assay with Galectin-3 [10] it was 3.1 nM; with Galectin-3 [11], 2.9 nM; with Galectin-3 [13], 2.5 nM. In addition, the IC50 with Galectin-3 [12] was 1.5 µg/mL; with Galectin-3 [14], 1.05 µg/mL; in the assay with Galectin-3 [15] it was 1.63 µg/mL and 1.43 µg/mL; with Galectin-3 [16] it was 1.67 µg/mL and 1.71 µg/mL.

B2: TB006 (antibody, human IgG4 S228P, kappa, V domains shown)
VH: QVQLVQSGAEVKKPGASVKVSCKASGYSFTNYYMHWVRQAPGQRLEWMGWIYPGSGNTNYNEKFQGRVTITADTSASTAYMELSSLRSEDTAVYYCSTAPGGFDVWGQGTTVTVSS
VL: DIVMTQTPLSLSVTPGQPASISCKSSKSLLHSDGITYLYWYLQKPGQSPQLLIYRMSNLASGVPDRFSGSGSGTDFTLKISRVEAEDVGVYYCAQMLEFPLTFGQGTKLEIKR
notes: Full antibody tested as drug substance (DS) in 20 mM L-histidine, 5 mM methionine, 100 mM NaCl, 0.02% polysorbate-80, pH 5.8; also called 4A11.H3L1; IMT006a
In the case of B2, the Kd with Galectin-3 (Gal3) [17] was determined as 3.7 nM; in the assay with Galectin-3 (Gal3) [18], 2.1 nM; with Galectin-3 (Gal3) [19], 3.9 nM; in the assay with Galectin-3 (Gal3) [20] it was 2.7 nM; in the assay with Galectin-3 (Gal3) [21] it was 3.4 nM; in the assay with Galectin-3 (Gal3) [22], 3.3 nM. Also, the Kd in the assay with Galectin-3 (Gal3) [23] is 2.9 nM; in the assay with Galectin-3 (Gal3) [24] it was 2.6 nM; with Galectin-3 (Gal3) [25], 2.7 nM; in the assay with Galectin-3 (Gal3) [26], 2.3 nM; with Galectin-3 (Gal3) [27], 3.6 nM; in the assay with Galectin-3 (Gal3) [28], 2.1 nM. Also, the Kd was found to be 2.5 nM in the assay with Galectin-3 (Gal3) [29], 2.5 nM in the assay with Galectin-3 (Gal3) [30], 1.8 nM in the assay with Galectin-3 (Gal3) [31] and 3.8 nM with Galectin-3 (Gal3) [32].
